Where two headings read alike, the source gives them in different places. Non-standard residues stand in square brackets, D forms with d. No end group written: not given here. Nle = CCCC[C@H](N)C(=O)O
T1: human PTH/PTHrP receptor (PTH1 receptor) (human, UniProt Q03431 27-593)
T1 sequence (looked up): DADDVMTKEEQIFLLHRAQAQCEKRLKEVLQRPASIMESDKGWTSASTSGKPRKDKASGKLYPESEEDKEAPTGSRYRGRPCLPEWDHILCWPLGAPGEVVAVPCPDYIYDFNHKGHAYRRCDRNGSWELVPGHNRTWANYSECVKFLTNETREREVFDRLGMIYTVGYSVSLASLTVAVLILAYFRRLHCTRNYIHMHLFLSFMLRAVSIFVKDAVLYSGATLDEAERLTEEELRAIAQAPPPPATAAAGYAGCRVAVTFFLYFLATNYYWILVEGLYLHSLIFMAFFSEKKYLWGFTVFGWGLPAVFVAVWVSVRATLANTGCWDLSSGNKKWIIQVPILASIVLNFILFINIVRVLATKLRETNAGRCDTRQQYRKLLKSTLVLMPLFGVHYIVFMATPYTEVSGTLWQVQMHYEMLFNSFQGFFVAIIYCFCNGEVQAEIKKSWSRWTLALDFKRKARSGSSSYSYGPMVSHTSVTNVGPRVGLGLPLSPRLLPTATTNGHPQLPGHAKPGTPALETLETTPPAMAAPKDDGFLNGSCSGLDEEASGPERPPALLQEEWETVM

T2: canine renal PTH/PTHrP receptor (canine, UniProt Q9TU31 29-595)
T2 construct: whole, on cells; Native receptor in renal cortical membranes of adult mongrel dogs, not intact cells; also called canine renal receptors; receptor in canine renal cortical membranes (CRCM)
T2 sequence (looked up): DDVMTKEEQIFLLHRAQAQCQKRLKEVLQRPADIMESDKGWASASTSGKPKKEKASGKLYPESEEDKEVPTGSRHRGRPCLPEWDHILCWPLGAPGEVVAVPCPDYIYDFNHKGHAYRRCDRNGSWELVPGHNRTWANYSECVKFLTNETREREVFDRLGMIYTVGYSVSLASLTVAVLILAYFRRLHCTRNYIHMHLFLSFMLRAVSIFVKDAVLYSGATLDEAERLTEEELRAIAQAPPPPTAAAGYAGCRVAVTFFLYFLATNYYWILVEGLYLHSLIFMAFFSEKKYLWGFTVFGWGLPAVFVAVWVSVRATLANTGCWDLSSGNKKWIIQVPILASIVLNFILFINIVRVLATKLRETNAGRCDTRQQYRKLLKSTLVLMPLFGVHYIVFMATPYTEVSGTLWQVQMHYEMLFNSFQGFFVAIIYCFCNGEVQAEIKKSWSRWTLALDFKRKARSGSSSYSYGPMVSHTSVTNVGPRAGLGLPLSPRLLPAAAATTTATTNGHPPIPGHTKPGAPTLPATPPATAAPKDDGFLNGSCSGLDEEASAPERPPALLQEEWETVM


Columns and labels:
[1] = target: T1, human PTH/PTHrP receptor (PTH1 receptor); experiment: cell-based or functional assay
[2] = target: T1, human PTH/PTHrP receptor (PTH1 receptor); experiment: competition of 125I-(Tyr36)hPTHrP-(1-36)NH2 binding, SaOS-2 membranes, 30 C, 60 min
[3] = target: T1, human PTH/PTHrP receptor (PTH1 receptor); experiment: competition of 125I-(Tyr36)hPTHrP-(1-36)NH2 binding, human renal cortical membranes, 30 C, 30 min
[4] = target: T1, human PTH/PTHrP receptor (PTH1 receptor); experiment: competition of 125I-(Tyr36)hPTHrP-(1-36)NH2 binding, intact SaOS-2 cells, 15 C, 150 min
[5] = target: T1, human PTH/PTHrP receptor (PTH1 receptor); experiment: competition of 125I-(Tyr36)hPTHrP-(1-36)NH2 binding, human renal cortical membranes, 30 C, 30 min
[6] = target: T1, human PTH/PTHrP receptor (PTH1 receptor); experiment: cell-based or functional assay; remark: listed apart in the source
[7] = target: T1, human PTH/PTHrP receptor (PTH1 receptor); experiment: competition of 125I-(Tyr36)hPTHrP-(1-36)NH2 binding, human renal cortical membranes, 30 C, 30 min; remark: listed apart in the source
[8] = target: T1, human PTH/PTHrP receptor (PTH1 receptor); experiment: cell-based or functional assay; remark: listed apart in the source
[9] = target: T1, human PTH/PTHrP receptor (PTH1 receptor); experiment: competition binding, human RCM and SaOS-2 membranes
[10] = target: T2, canine renal PTH/PTHrP receptor; experiment: competition of 125I-[Nle8,18,Tyr34]hPTH-(1-34)amide binding, canine renal cortical membranes, 20 C; Ki from IC50
[11] = target: T2, canine renal PTH/PTHrP receptor; experiment: competition of 125I-[Tyr36]PTHrP-(1-36)amide binding, canine renal cortical membranes, 20 C; Ki from IC50
[12] = target: T2, canine renal PTH/PTHrP receptor; experiment: cell-based or functional assay
[13] = target: T1, human PTH/PTHrP receptor (PTH1 receptor); experiment: competition of 125I-(Tyr36)hPTHrP-(1-36)NH2 binding, human RCM, SaOS-2 membranes, intact SaOS-2 cells
[14] = target: T1, human PTH/PTHrP receptor (PTH1 receptor); experiment: cell-based or functional assay; remark: listed apart in the source
[15] = target: T2, canine renal PTH/PTHrP receptor; experiment: homologous competition of 125I-[Nle8,18,Tyr34]hPTH-(1-34)amide binding, canine renal cortical membranes, 20 C
Protocol: (§1) Binding assays were conducted in siliconized 12×75 mm borosilicate glass test tubes at 20° C. in a final volume of 0.2 ml. […] Binding was initiated by adding 50 μg membrane. At the end of the incubation periods described, 50 μl triplicate aliquots were layered onto 300 μl of iced binding buffer containing 1.0% BSA in 500 μl polypropylene tubes. The tubes were centrifuged at approximately 16,000×g for three min at 4° C. in a microcentrifuge. The supernatant was aspirated and the tip of the tube containing the membrane-associated radioligand was cut off. Radioactivity in both the pellet and supernatant was measured.
(§2) Dissociation constants (Kd) were determined by Scatchard analysis of the data obtained from competitive binding experiments using radioligand and increasing concentrations of unlabeled ligand. […] Statistical differences were assessed by paired Student's t test. […] Significance was determined using a partial F-test.

[16] = target: T2, canine renal PTH/PTHrP receptor; experiment: competition of 125I-[Tyr36]PTHrP-(1-36)amide binding, canine renal cortical membranes, 20 C; printed as binding dissociation constant, heterologous competitor (Ki from IC50 by paragraph 214)
Protocol: as §1, §2

[17] = target: T2, canine renal PTH/PTHrP receptor; experiment: competition of 125I-[Nle8,18,Tyr34]hPTH-(1-34)amide binding, canine renal cortical membranes, 20 C
Protocol: as §1, §2

[18] = target: T2, canine renal PTH/PTHrP receptor; experiment: competition of 125I-[Tyr36]PTHrP-(1-36)amide binding, canine renal cortical membranes, 20 C
Protocol: as §1, §2

IC50 [2] [nM]	IC50 [4] [nM]	IC50 [5] [nM]	Adenylate cyclase (EC50), SaOS membranes [6] [nM]	Adenylate cyclase (EC50), kidney membranes (human RCM) [6] [nM]	IC50 [7] [nM]	Adenylate cyclase (EC50), SaOS cells (intact, 15 C, 60 min) [8] [nM]	Adenylate cyclase (EC50), kidney membranes (human RCM) [8] [nM]	Molecule	other results
			0.5			1.2		AVSEIQFMHNLGKHLSSMERVEWLRKKLQDVHNF (peptide, UniProt P01268 32-65, looked up, range 1-34; Synthetic, Bachem; also called bPTH-(1-34); bovine (b)PTH-(1-34)) [bovine PTH-(1-34)]	Ki [10]: 6.1 nM; Ki [11]: 10.5 nM; adenylate cyclase potency against PTHrP-(1-36), standard assay (30 min, 30 C) [12]: 6 fold; adenylate cyclase stimulation against PTHrP-(1-36), binding assay conditions (20 C, 20 min, bacitracin) [12]: 15 fold
	0.9		0.09	0.05		0.9	0.05	AVSEIQLMHNLGKHLASVERMQWLRKKLQDVHNF (peptide, UniProt P04089 32-65, looked up, range 1-34; Synthetic, Bachem; also called rPTH-(1-34); rat (r)PTH-(1-34)) [rat PTH-(1-34)]	adenylate cyclase potency against hPTHrP-(1-36), human RCM and SaOS-2 membranes [14]: 10 fold

Continued, molecule first:

Molecule	IC50 [2] [nM]	IC50 [4] [nM]	IC50 [5] [nM]	Adenylate cyclase (EC50), SaOS membranes [6] [nM]	Adenylate cyclase (EC50), kidney membranes (human RCM) [6] [nM]	IC50 [7] [nM]	Adenylate cyclase (EC50), SaOS cells (intact, 15 C, 60 min) [8] [nM]	Adenylate cyclase (EC50), kidney membranes (human RCM) [8] [nM]	other results
(Tyr^36) chicken (c) PTHrP-(1-36)amide (from UniProt P17251 38-73) (peptide)	1.1								Adenylate cyclase (EC50), SaOS cells (intact, 15 C, 60 min) [1]: 0.8 nM; Adenylate cyclase (EC50), SaOS membranes [1]: 0.87 nM; Adenylate cyclase (EC50), kidney membranes (human RCM) [1]: 0.49 nM; IC50 [3]: 0.47 nM
bPTH-(1-84) (ligand, bovine, UniProt P01268 32-115, looked up, range 1-84; From the National Hormone and Pituitary Program (NIDDK); also called bovine PTH-(1-84)) AVSEIQFMHNLGKHLSSMERVEWLRKKLQDVHNFVALGASIAYRDGSSQRPRKKEDNVLVESHQKSLGEADKADVDVLIKAKPQ	8	17.5	5.1	2.4	0.59	5.1	7.7	0.59	fold lower relative affinity than the amino-terminal analogs [9]: ~10 fold
SVSEIQL[Nle]HNLGKHLNS[Nle]ERVEWLRKKLQDVHNY [(Nle^8,18, Tyr^34)hPTH-(1-34)]	2	2.8	3.6	1.9	1.1	3.6	2.3	1.1	
RATSEVSPNSKPSPNTKNHPVRFGSDDEGRYLTQETNK (peptide, UniProt P12272 73-110, looked up, range 73-110; Solid phase synthesis) [hPTHrP-(37-74)]									binding result [13]: no binding
SVSEIQL[Nle]HNLGKHLNS[Nle]ERVEWLRKKLQDVHNY-NH2 (also called NNT-hPTH-(1-34); [Nle^8,18, Tyr^34]hPTH-(1-34)NH2) [[Nle^8,18,Tyr^34]hPTH-(1-34)amide]									Ki [15]: 7.5 nM; Ki [16]: 8.5 nM; fold more potent than PTHrP-(1-36) in inhibiting binding [17]: < 2 fold
SVSEMQLMHNLGEHRHTVERQDWLQMKLQDVHSA-NH2 (peptide, UniProt P15743 32-65, looked up, range 1-34; Solid phase synthesis; also called cPTH-(1-34)NH2) [Chicken PTH-(1-34)amide]	20		21.5	16.3	5.4	21.5	3.9	5.4	
CQLLHDWGGSIQDL (also called P1-peptide; P1 peptide) [(Cys^5,Trp^11,Gly^13)PTHrP-(5-18)]									binding result [18]: no binding
SPNTKNHPVRFGSDDEGRYLTQETNK (peptide, UniProt P12272 85-110, looked up, range 49-74; Solid phase synthesis) [PTHrP-(49-74)]									binding result [18]: no binding
